Measured values published in article PMC6879724, “Insect Hsp90 Chaperone Assists Bacillus thuringiensis Cry Toxicity by Enhancing Protoxin Binding to the Receptor and by Protecting Protoxin from Gut Protease Degradation” (mBio, 2019).

How the values were obtained:
Cry1Ab protoxin = biological target: T1, Cry1Ab protoxin (Bacillus thuringiensis, UniProt P0A370 1-1155); assay: ELISA; plates coated with 0.5 ug protoxin or activated toxin in PBS; PxHsp90 in Hsp90 buffer (1 mM ATP, 1 mM Mg in PBS) added for 1 h at 37 C; detected with anti-polyhistidine-peroxidase antibody; one sample without ATP (binding significantly reduced); conditions: both partners purified
T1 construct: also called 130-kDa protoxin

Cry1Ac protoxin = Cry1Ac protoxin (Bacillus thuringiensis (strain HD73), UniProt P05068 1-1178); assay: as above; conditions: both partners purified

B1: Plutella xylostella Hsp90 (natural protein)
chain: not shown
notes: Hsp90 of Plutella xylostella, gene Pxhsp90 (GenBank AB214972.1), amplified from genomic DNA with primers from the start codon (NdeI) to the stop codon (BamHI); Cloned NdeI-BamHI into pET28b with its own stop codon, so the His tag is probably N-terminal (surmised); detected in the ELISA with an anti-polyhistidine antibody; also called PxHsp90; source: E. coli BL21 (pET28b), purified (Ni-NTA from …)
Cry1Ab protoxin
  binding result: binds
Cry1Ac protoxin
  binding result: binds
